According to patent US20140154241A1 (CYCLOGENIX, published 2014):
Changes are numbered by the printed parent chain. Each block holds one binder with its values, some of them ahead of it.

Molecular target: T1, human serum albumin (HSA) (human, UniProt P02768 25-609)
T1 construct: Coated on ELISA plates or immunotubes; also called HuSA
Assay: phage ELISA on coated HSA

T1 sequence (P02768 25-609 limits assumed): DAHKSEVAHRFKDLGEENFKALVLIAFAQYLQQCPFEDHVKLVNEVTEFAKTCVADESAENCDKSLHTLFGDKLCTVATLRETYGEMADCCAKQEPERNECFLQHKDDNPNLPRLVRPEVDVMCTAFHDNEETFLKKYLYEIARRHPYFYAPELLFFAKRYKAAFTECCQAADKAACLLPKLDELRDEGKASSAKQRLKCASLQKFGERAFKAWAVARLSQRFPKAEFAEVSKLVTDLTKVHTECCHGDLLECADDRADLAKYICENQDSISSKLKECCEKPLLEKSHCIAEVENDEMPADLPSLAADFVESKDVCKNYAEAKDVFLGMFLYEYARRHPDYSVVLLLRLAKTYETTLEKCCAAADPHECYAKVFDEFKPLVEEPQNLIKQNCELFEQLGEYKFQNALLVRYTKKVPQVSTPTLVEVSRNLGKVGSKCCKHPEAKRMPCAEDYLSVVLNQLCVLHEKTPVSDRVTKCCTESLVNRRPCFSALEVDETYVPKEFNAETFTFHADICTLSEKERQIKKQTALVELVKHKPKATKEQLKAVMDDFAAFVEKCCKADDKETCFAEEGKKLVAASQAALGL

- binding result: binds
B1: modified igNAR peptide clone B10 (VNAR)
VNAR: RVDQTPRIATKETGESLTINCVLRDTACALDSTNWYRTKLGSTKEQTISIGGRYSETADEGSNPASLTIRDLRVEDSGTYKCKAAITPFDNWYECLGTRAEGAGTVLTVK

- binding result: binds
B2: representative full igNAR clone of SEQ ID NO: 8 (VNAR)
VNAR: B1 VNAR with A58V, P64S
